Among the data in publication PMC8856733 are stoichiometry N values, retold here.

Holding throughout (experiment): SEC
(In general: In gel filtration, larger molecules generally elute earlier.)

Experiment [1] deals with human glycyl-tRNA synthetase (GlyRS) C157R, CMT mutant (human).
The target in experiment [2] is human glycyl-tRNA synthetase (GlyRS) L129P, CMT mutant (human).
The target of experiment [3] is human glycyl-tRNA synthetase (GlyRS), wild type (human).
The target of experiment [4] is human glycyl-tRNA synthetase (GlyRS) G240R, CMT mutant (human).
Experiment [5] addresses human glycyl-tRNA synthetase (GlyRS) G526R, CMT mutant (human).
The target of experiment [6] is human glycyl-tRNA synthetase (GlyRS) E71G, CMT mutant (human).
Experiment [7] addresses human glycyl-tRNA synthetase (GlyRS) E279D, CMT mutant (human).

By stoichiometry N is commonly meant a count of units in the complex or per binding partner. “human glycyl-tRNA synthetase (GlyRS) C157R, CMT mutant (enzyme)”: the stoichiometry N in experiment [1] worked out at 2.

“human glycyl-tRNA synthetase (GlyRS) L129P, CMT mutant (enzyme)”: the stoichiometry N in experiment [2] is 2. The substance “human glycyl-tRNA synthetase (GlyRS), wild type (enzyme)” displayed a stoichiometry N in experiment [3] of 2. Substance “human glycyl-tRNA synthetase (GlyRS) G240R, CMT mutant (enzyme)” yielded a stoichiometry N in experiment [4] of 2. The substance “human glycyl-tRNA synthetase (GlyRS) G526R, CMT mutant (enzyme)” showed a stoichiometry N in experiment [5] of 2. “human glycyl-tRNA synthetase (GlyRS) E71G, CMT mutant (enzyme)” gave a stoichiometry N in experiment [6] of 2. For “human glycyl-tRNA synthetase (GlyRS) E279D, CMT mutant (enzyme)”, the stoichiometry N in experiment [7] was 2.
